The source of these data is patent publication US20230079757A1, “METHODS AND MATERIALS FOR TREATING CANCER” (Mayo Foundation for Medical Education and Research, priority 2020, published 2023).

To fix the notation:
T1: STAT1 homodimer (human, UniProt P42224 2-750)
T1 construct: It was inferred from co-IP after IFNγ treatment and was not purified; also called STAT1/STAT1 homodimer; STAT1-STAT1 complex
T1 sequence (looked up): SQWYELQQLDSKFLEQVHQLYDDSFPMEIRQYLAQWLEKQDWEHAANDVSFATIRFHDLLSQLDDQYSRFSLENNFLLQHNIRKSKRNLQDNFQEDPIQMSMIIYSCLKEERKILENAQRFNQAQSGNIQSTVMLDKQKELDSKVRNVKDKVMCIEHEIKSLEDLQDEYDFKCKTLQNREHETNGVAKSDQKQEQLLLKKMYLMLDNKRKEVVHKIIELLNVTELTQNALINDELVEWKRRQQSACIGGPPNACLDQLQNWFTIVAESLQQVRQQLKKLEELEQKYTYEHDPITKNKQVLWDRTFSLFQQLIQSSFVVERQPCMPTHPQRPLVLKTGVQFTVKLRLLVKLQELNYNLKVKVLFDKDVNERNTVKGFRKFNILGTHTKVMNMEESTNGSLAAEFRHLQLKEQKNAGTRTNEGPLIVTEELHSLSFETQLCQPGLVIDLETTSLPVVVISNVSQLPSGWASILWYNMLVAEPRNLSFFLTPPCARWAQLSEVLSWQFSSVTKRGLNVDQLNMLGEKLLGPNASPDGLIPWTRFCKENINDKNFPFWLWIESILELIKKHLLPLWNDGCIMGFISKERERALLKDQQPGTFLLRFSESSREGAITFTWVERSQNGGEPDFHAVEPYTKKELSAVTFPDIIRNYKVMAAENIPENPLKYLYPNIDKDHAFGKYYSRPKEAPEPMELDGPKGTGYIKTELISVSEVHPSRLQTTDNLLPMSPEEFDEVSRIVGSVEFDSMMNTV

B1: STAT1 (other, human, UniProt P42224 2-750, looked up)
chain: T1 sequence (looked up)
notes: Cells were stimulated with IFN; also called endogenous STAT1
B2: FOXA1 (Forkhead box protein A1), wild type (other, human, UniProt P55317 1-472, looked up)
chain: MLGTVKMEGHETSDWNSYYADTQEAYSSVPVSNMNSGLGSMNSMNTYMTMNTMTTSGNMTPASFNMSYANPGLGAGLSPGAVAGMPGGSAGAMNSMTAAGVTAMGTALSPSGMGAMGAQQAASMNGLGPYAAAMNPCMSPMAYAPSNLGRSRAGGGGDAKTFKRSYPHAKPPYSYISLITMAIQQAPSKMLTLSEIYQWIMDLFPYYRQNQQRWQNSIRHSLSFNDCFVKVARSPDKPGKGSYWTLHPDSGNMFENGCYLRRQKRFKCEKQPGAGGGGGSGSGGSGAKGGPESRKDPSGASNPSADSPLHRGVHGKTGQLEGAPAPGPAASPQTLDHSGATATGGASELKTPASSTAPPISSGPGALASVPASHPAHGLAPHESQLHLKGDPHYSFNHPFSINNLMSSSEQQHKLDFKAYEQALQYSPYGSTLPASLPLGSASVTTRSPIEPSALEPAYYQGVYSRPVLNTS
notes: also called FOXA1-WT; WT FOXA1
B3: IRF9 (other, UniProt Q00978 1-393, looked up)
chain: MASGRARCTRKLRNWVVEQVESGQFPGVCWDDTAKTMFRIPWKHAGKQDFREDQDAAFFKAWAIFKGKYKEGDTGGPAVWKTRLRCALNKSSEFKEVPERGRMDVAEPYKVYQLLPPGIVSGQPGTQKVPSKRQHSSVSSERKEEEDAMQNCTLSPSVLQDSLNNEEEGASGGAVHSDIGSSSSSSSPEPQEVTDTTEAPFQGDQRSLEFLLPPEPDYSLLLTFIYNGRVVGEAQVQSLDCRLVAEPSGSESSMEQVLFPKPGPLEPTQRLLSQLERGILVASNPRGLFVQRLCPIPISWNAPQAPPGPGPHLLPSNECVELFRTAYFCRDLVRYFQGLGPPPKFQVTLNFWEESHGSSHTPQNLITVKMEQAFARYLLEQTPEQQAAILSLV

In data set [1] the target is T2, STAT2 (human, UniProt P52630 1-851).
T2 construct: also called endogenous STAT2
The data set can be described thus: co-IP in 293T cells treated with IFNα (FIG. 9D). The procedure:
(§1) For extraction of nuclear and cytoplasmic proteins from cells, NE-PER Nuclear and Cytoplasmic Extraction Kit (# 78835, Thermo Fisher Scientific) was used according to the manufacturer's instructions. IP buffer (50 mM Tris-HCl pH7.5, 150 mM NaCl, 1% NP40, 0.5% Sodium Deoxycholate) was used to extract whole cell lysate. P rotein A/G agarose (# 20421, Thermo Fisher Scientific) was used for immunoprecipitation of FOXA1 (# ab23738, Abcam) and Flag-tag (dilution 1:1000; # F1804, Sigma-Aldrich). Monoclonal anti-HA agarose (# A2095, Sigma-Aldrich) was used for HA-tag Co-IP. For glutathione-S-transferase (GST) pulldown assay, GST-tagged STAT2 fragment expressed at E. coli was purified by Glutathione Sepharose 4B beads (# 84-239, Genesee Scientific) and incubated with lysate from 293T cells expressing interested proteins, and GST pulldown assays were performed. For protein co-IP, samples eluted in IP butter were incubated with agarose beads and antibodies overnight at 4° C. and washed with 6 times with IP buffer in the following day. Samples were boiled for 10 minutes in 50 μl sample buffer (2% SDS, 10% glycerol, 10% β-mercaptoethanol, bromophenol blue and Tris-HCl, pH 6.8) and subjected to Western blotting.

Data set [2] concerns the molecule itself. Nature of the data set: co-IP in 293T cells treated with IFNγ (FIG. 9D). As for the experimental part: as §1
In data set [3] the target is T2, STAT2. Nature of the data set: co-IP of endogenous proteins in LNCaP cells (FIG. 8A). The procedure: as §1
The target of data set [4] is B1. The data set can be described thus: co-IP of endogenous proteins, nuclear fraction (FIG. 8A, 9A, 9B). The procedure: as §1
Data set [5] concerns the target T3, STAT1/STAT2 heterodimer (human, UniProt P42224 2-750; P52630 1-851).
T3 construct: It was inferred from co-IP after IFNα treatment and was not purified; also called STAT2/STAT1 heterodimer
The data set can be described thus: co-IP of endogenous proteins after IFNα treatment (FIG. 8A, 9A, 9B). The procedure:
as §1

The target in data set [6] is T1, STAT1 homodimer. The data set can be described thus: co-IP of endogenous proteins after IFNγ treatment (FIG. 8A, 9A, 9B). As for the experimental part:
as §1

For data set [7], the target named is T3, STAT1/STAT2 heterodimer. The data set can be described thus: co-IP in 293T cells treated with IFNα (FIG. 9D). As for the experimental part: as §1

T2 sequence (P52630 whole entry): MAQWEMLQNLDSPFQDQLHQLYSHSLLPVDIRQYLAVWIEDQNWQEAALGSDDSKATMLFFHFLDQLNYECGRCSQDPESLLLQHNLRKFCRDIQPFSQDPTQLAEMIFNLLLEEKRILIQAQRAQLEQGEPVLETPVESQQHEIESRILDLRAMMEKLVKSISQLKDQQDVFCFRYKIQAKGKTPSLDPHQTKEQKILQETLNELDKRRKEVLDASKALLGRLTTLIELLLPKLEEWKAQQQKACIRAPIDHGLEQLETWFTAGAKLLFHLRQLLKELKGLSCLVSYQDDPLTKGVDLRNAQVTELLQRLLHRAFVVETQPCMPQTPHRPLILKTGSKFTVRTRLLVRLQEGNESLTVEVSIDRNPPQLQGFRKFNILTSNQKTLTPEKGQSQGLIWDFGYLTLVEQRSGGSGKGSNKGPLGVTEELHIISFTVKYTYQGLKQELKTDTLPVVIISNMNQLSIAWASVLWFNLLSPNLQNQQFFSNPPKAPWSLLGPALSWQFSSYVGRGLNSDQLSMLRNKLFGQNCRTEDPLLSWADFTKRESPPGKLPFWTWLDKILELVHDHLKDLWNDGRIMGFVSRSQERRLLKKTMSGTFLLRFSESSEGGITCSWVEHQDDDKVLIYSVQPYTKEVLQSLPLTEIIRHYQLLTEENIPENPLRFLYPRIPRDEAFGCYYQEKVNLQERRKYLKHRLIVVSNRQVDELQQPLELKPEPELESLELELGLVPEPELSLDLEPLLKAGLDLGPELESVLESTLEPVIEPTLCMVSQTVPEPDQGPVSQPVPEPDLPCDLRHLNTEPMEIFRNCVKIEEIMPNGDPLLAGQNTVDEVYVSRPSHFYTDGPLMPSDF
T3 sequence (P52630 whole entry, one chain of several): as the sequence (P52630 whole entry) above

B1: the binding result in data set [1] and in data set [2] was “binds” throughout.

Take B2: the binding result in data set [3], in data set [4], in data set [5] and in data set [6] was “binds” throughout.

As for B3, in data set [7], the binding result is reported as “binds”.
